Experimental data from US20160122395A1, “Immunogenic compositions and a process for producing same” (THE […] INSTITUTE FOR MEDICAL RESEARCH AND PUBLIC HEALTH LTD, priority 2013, published 2016).

Tests used:
[1] = target: HIV-1 AD8 Env ΔN139INN/K601N (HIV-1 (AD8 strain)); test: cell-based or functional assay
[2] = target: HIV-1 AD8 envelope glycoprotein (Env), wild type (HIV-1 (AD8 strain)); test: cell-based or functional assay
[3] = target: HIV-1 AD8 gp120, wild type (HIV-1 (AD8 strain)); test: 35S pulse-chase labelling, immunoprecipitation, gp120-shedding index
[4] = target: HIV-1 AD8 gp120 T138N (HIV-1 (AD8 strain)); test: as above
HIV-1 = conditions: monotherapy, HIV-1 infected individuals; cited from earlier work
HIV-1AD8 WL/KH virus = test: Neutralization assay in TZM-bl cells, WL/KH virus; assay type: cell-based
HIV-1AD8 WL/KH/DE virus = test: Neutralization assay in TZM-bl cells, WL/KH/DE virus; assay type: cell-based

With C34 fusion inhibitor peptide the IC50, inhibition of Env-mediated cell-cell fusion by C34 (luciferase) [1] was 100 nM and the IC50, inhibition of Env-mediated cell-cell fusion by C34 (luciferase) [2] was 100 nM.

HIV-1 AD8 gp41 K601D gave a gp120 shedding into culture supernatant, fold with respect to WT [3] of 6.8 fold and an improvement of gp120-gp41 association, fold with respect to K601D [4] of 2 fold.

Substance HIV-1 AD8 gp41 K601N has a gp120 shedding into culture supernatant, fold with respect to WT [3] of 4.4 fold.

For “Ibalizumab: αCD4bs antibody used as monotherapy of HIV-1 infected individuals”, the viral load (HIV-1) is listed as “transient drop in viral load to nadir levels followed by a rebound in viral titre”.

With maraviroc the “neutralization compared to the WT” value (HIV-1AD8 WL/KH virus) was “to similar extents” and the “neutralization compared to the WT” value (HIV-1AD8 WL/KH/DE virus) was “to similar extents”.
